The chains are these.
B1: BBSome complex member BBS2 (Homo sapiens), Q9BXC9 (parent)
chain: MLLPVFTLKLRHKISPRMVAIGRYDGTHPCLAAATQTGKVFIHNPHTRNQHVSASRVFQSPLESDVSLLSINQAVSCLTAGVLNPELGYDALLVGTQTNLLAYDVYNNSDLFYREVADGANAIVLGTLGDISSPLAIIGGNCALQGFNHEGSDLFWTVTGDNVNSLALCDFDGDGKKELLVGSEDFDIRVFKEDEIVAEMTETEIVTSLCPMYGSRFGYALSNGTVGVYDKTSRYWRIKSKNHAMSIHAFDLNSDGVNELITGWSNGKVDARSDRTGEVIFKDNFSSAIAGVVEGDYRMDGHIQLICCSVDGEIRGYLPGTAEMRGNLMDTSAEQDLIRELSQKKQNLLLELRNYEENAKAELASPLNEADGHRGIIPANTRLHTTLSVSLGNETQTAHTELRISTSNDTIIRAVLIFAEGIFTGESHVVHPSIHNLSSSICIPIVPPKDVPVDLHLKAFVGYRSSTQFHVFESTRQLPRFSMYALTSLDPASEPISYVNFTIAERAQRVVVWLGQNFLLPEDTHIQNAPFQVCFTSLRNGGHLHIKIKLSGEITINTDDIDLAGDIIQSMASFFAIEDLQVEADFPVYFEELRKVLVKVDEYHSVHQKLSADMADHSNLIRSLLVGAEDARLMRDMKTMKSRYMELYDLNRDLLNGYKIRCNNHTELLGNLKAVNQAIQRAGRLRVGKPKNQVITACRDAIRSNNINTLFKIMRVGTASS
partner: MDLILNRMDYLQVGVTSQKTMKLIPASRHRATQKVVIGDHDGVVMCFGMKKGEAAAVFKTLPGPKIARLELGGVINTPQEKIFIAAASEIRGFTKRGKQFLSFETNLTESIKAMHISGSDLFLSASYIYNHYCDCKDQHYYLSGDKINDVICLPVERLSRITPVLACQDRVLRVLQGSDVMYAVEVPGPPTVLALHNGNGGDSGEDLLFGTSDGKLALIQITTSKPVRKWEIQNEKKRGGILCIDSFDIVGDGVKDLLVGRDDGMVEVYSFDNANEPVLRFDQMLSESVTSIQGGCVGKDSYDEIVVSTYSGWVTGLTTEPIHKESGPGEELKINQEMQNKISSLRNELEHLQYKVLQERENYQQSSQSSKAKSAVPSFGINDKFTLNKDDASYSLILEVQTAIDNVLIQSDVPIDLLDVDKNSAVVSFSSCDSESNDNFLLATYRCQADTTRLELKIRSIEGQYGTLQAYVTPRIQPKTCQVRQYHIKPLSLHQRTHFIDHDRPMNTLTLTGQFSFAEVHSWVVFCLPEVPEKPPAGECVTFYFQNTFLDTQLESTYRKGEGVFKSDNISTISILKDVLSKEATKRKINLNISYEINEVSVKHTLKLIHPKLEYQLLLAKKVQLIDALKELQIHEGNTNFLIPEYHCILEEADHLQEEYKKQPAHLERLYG

The variants in the assay derive from B1. The following applies: with BBS7, Q8IWZ6-2.
For the variant L538R, the “effect of a mutation on the interaction” value was “disrupting interaction strength”.
For Q608K the value was “with no effect”.
Then A697E, with “with no effect”.
For N393A the value was “with no effect”; for N393K, “with no effect”.
On to L593A, for which the “effect of a mutation on the interaction” value is on record as “with no effect”.
Then A628E, with “with no effect”; and V389E, with “with no effect”; and R339K, with “with no effect”.
For Q581K the value was “with no effect”; for A507E, “with no effect”; for L341K, “with no effect”.
Turning to E334A, the “effect of a mutation on the interaction” value is recorded as “with no effect”.
Then I445A, with “disrupting interaction strength”; and D653K, with “with no effect”.
Then R622A, with “with no effect”.
Then R681E, with “with no effect”; and Y648K, with “with no effect”.
For S466K, the “effect of a mutation on the interaction” value is recorded as “with no effect”.
Then G627K, with “with no effect”; and R686A, with “disrupting interaction strength”; and S623K, with “with no effect”.
For S488R the value was “disrupting interaction strength”.
S488K: the “effect of a mutation on the interaction” value is “with no effect”.
For P690K the value was “with no effect”; for I561A, “with no effect”; for A492E, “with no effect”.
For V499R the value was “disrupting interaction strength”.
T467E: the “effect of a mutation on the interaction” value is “with no effect”.
Consider V451E, for which the “effect of a mutation on the interaction” value is given as “with no effect”.
Q396K: the “effect of a mutation on the interaction” value is reported as “with no effect”.
For V533A, the “effect of a mutation on the interaction” value was “with no effect”.
For S474E the value was “with no effect”.
For I338A the value was “with no effect”.
For I404E the value was “with no effect”.
Take I404K: the “effect of a mutation on the interaction” value is given as “disrupting interaction strength”.
Then L624E, with “with no effect”.
Then D579K, with “with no effect”; and L383A, with “disrupting interaction strength”; and Q343K, with “with no effect”.
Then E473K, with “with no effect”; and S427K, with “with no effect”; and P530K, with “with no effect”.
For P530A, the “effect of a mutation on the interaction” value is given as “with no effect”.
Then A504K, with “with no effect”.
For A504E, the “effect of a mutation on the interaction” value was “with no effect”.
Then Y589E, with “with no effect”; and T397K, with “with no effect”; and L402E, with “with no effect”.
For V598K the value was “with no effect”.
For I417E the value was “with no effect”; for I417K, “with no effect”.
In the case of F590K, the “effect of a mutation on the interaction” value is “with no effect”.
Then F590A, with “with no effect”; and I422A, with “with no effect”; and I422K, with “with no effect”.
For F586E the value was “with no effect”; for F586K, “with no effect”; for V687E, “with no effect”.
For E553A the value was “with no effect”.
Turning to Q516A, the “effect of a mutation on the interaction” value is given as “with no effect”.
For I412R the value was “disrupting interaction strength”; for L610K, “with no effect”.
For F472A the value was “disrupting interaction strength”; for R403A, “with no effect”.
For I695K the value was “with no effect”; for E401A, “with no effect”.
L391E: the “effect of a mutation on the interaction” value was “with no effect”.
Turning to S611K, the “effect of a mutation on the interaction” value is “with no effect”.
As to S611E, the “effect of a mutation on the interaction” value is reported as “with no effect”.
Consider Y498A, for which the “effect of a mutation on the interaction” value is recorded as “with no effect”.
For L457C the value was “disrupting interaction strength”; for V511E, “with no effect”; for Q508A, “with no effect”.
Then L650E, with “with no effect”; and V461A, with “disrupting interaction strength”.
Then E369A, with “with no effect”.
Regarding S342K, the “effect of a mutation on the interaction” value is recorded as “with no effect”.
Then V471K, with “with no effect”; and V471A, with “with no effect”; and M645E, with “with no effect”.
For G541E the value was “with no effect”; for G541A, “with no effect”; for H617K, “with no effect”.
For L672E the value was “with no effect”; for N358E, “with no effect”.
As to S440E, the “effect of a mutation on the interaction” value is “disrupting interaction strength”.
For N380K the value was “with no effect”.

The values above are taken from IntAct's records for PubMed 29039417.
